Assay results as given in US20210395310A1, “Cyclic Peptide” (The University of Tokyo, priority 2018, published 2021).
Positions of bridges follow the written chain, without caps; N, C: chain ends. Non-standard residues stand in square brackets, D forms with d. Primed or numbered codes have the meaning given here. No end group written: not given here. PEG11′ = PEG11 linker (11-unit polyethylene glycol spacer); PEG5′ = not defined here; PEG11″ = PEG11 linker; βAla = NCCC(=O)O

Legend:
PC-9 cells = test: Gefitinib resistance test; assay type: cell-based, human; design: growth of lung cancer cells: dose or concentration left out as unconfirmed
Description: The resistance to gefitinib, an anticancer agent, was tested by seeding human lung cancer cells, PC-9 cells, on a 24-well plate and cultured for 24 hours on a RPMI medium containing 10% fetal bovine serum. The number of living cells was counted after non-addition or addition of gefitinib ([…]), HGF (20 ng/mL), or HiP8-PEG11 (1-1000 nM) and culturing for 72 hours.

HGF = biological target: T1, HGF (Homo sapiens, UniProt P14210); test: MET activation test: inhibition of HGF-induced MET activation in EHMES-1 cells; assay type: cell-based; conditions: at a concentration of 100 nM or more
T1 construct: the full-length human HGF cDNA was cloned into pEHX1.1 plasmid; made in house; host or cells: Chinese hamster ovary (CHO) cells
Description: EHMES-1 Cells were stimulated for 10 minutes while using a medium with 20 ng/ml ([…]) of an hHGF protein in the presence or absence of a cyclic peptide and washed with phosphate-buffered physiological saline (PBS). Then, 4% paraformaldehyde (PFA) was added in PBS and the resulting mixture was incubated for 30 minutes, followed by further washing three times with PBS. The cells were […] for 30 minutes with 5% goat serum and 0.02% Triton X-100 in PBS and then, incubated at 4° C. for 12 hours in Phospho-Met (Tyr1234/1235) XP rabbit mAb (D26, product of Cell Signaling Technology, Danvers, Commonwealth of Massachusetts), a monoclonal antibody. As the monoclonal antibody, used was that diluted at 1:1000 in a 1% goat serum PBS suspension. The cells were washed three times with PBS and incubated for 1 hour in a liquid obtained by diluting an HRP-conjugated anti-rabbit antibody and a 1% goat serum PBS suspension at 1:1000. […] By using a chemiluminescence method with ImmunoStar (registered trademark) LD reagent (product of Wako Pure Chemicals, Japan), chemiluminescence intensity was measured by ARVO MX (product of Perkin Elmer). Relative MET phosphorylation was calculated as the following: (chemiluminescence unit of sample—chemiluminescence unit of mock control)/(chemiluminescence unit of […]—chemiluminescence unit of mock control). […]

MET = biological target: T2, MET (Homo sapiens, UniProt P08581); test: MET activation assay using cells: MET activation by HGF in EHMES-1 cells; assay type: cell-based
T2 construct: endogenous in cells; host or cells: EHMES-1 cells
Description: In EHMES-1 cells, HGF activated MET at EC50=0.07 nM. The arrow in the graph indicates 0.22 nM HGF used for peptide assessment. […] The EC50 value was determined by using dose-response (variable gradient, 4 parameters) curve fitting of Prism 6.0d and plotting the logarithm of MET activation against an HGF concentration. Data thus obtained are expressed as mean±s.d. of three independent measurement results.
EHMES-1 Cells were stimulated for 10 minutes while using a medium with 20 ng/ml ([…]) of an hHGF protein in the presence or absence of a cyclic peptide and washed with phosphate-buffered physiological saline (PBS). Then, 4% paraformaldehyde (PFA) was added in PBS and the resulting mixture was incubated for 30 minutes, followed by further washing three times with PBS. […] By using a chemiluminescence method with ImmunoStar (registered trademark) LD reagent (product of Wako Pure Chemicals, Japan), chemiluminescence intensity was measured by ARVO MX (product of Perkin Elmer). Relative MET phosphorylation was calculated as the following: (chemiluminescence unit of sample—chemiluminescence unit of mock control)/(chemiluminescence unit of […]—chemiluminescence unit of mock control).

tcHGF(Xa) = biological target: T3, tcHGF(Xa) (human, UniProt P14210 32-490; P14210 495-728); test: SPR, Biacore 3000, HiP8-PEG11-biotin on streptavidin chip, tcHGF(Xa) injected, steady-state affinity
T3 construct: A C-terminal hexahistidine tag was added and the sample was treated with TEV protease; also called mature HGF (Xa)
Description: A very limited portion of the scHGF(Xa) bound to HiP-8-PEG11. A binding rate was detected by surface plasmon resonance (SPR). RU represents a resonance unit (resonance unit). The upward arrow and the downward arrow mean start and end of HGF input, respectively. Data are expressed as mean±s.d. of typical sensorgrams performed in two iterations by using HGFs having a plurality of concentrations.
Binding of HGF and HGF fragments to immobilized HiP8-PEG11 was measured by surface plasmon resonance (SPR) with Biacore 3000 (product of Ge Flealthcare). Hip8-PEG11-biotin was supported on the surface of a streptavidin-coated chip at 10 RU (resonance unit). The test was performed by injecting HGF and HGF fragments with varying concentrations into 10 mM TBS (pH 7.4), 150 mM NaCl, and 0.05% Tween 20 (v/v) at a flow rate of 30 μl/min. Binding affinity was analyzed from a fitting model of steady-state affinity by multi-cycle kinetics analysis.

fluorescein-HGF [1] = biological target: T4, fluorescein-HGF (human, UniProt P14210 32-728, labelled with a succinimidyl fluorescein labeling kit (sites not given)); test: competition, flow cytometry: HiP-8 varied against the binding of 0.44 nM fluorescein-HGF to MET-Fc beads
T4 construct: also called fluoresceinated HGF
Description: (§1) Labeling of hHGF with fluorescein was performed using a succinimidyl fluorescein labeling kit (product of Dojindo). On 200 μl (50% v/v) of protein G beads (Spherotech) in Tris-buffered physiological saline (pH 7.5) containing 0.1% BSA and […] of Tween-20, 5 μg of MET-extracellular domain-Fc fusion protein (product of R&D systems) was immobilized. […] The fluorescence intensity of the beads was detected using a flow cytometer (product of FACS Canto II, BD Biosciences).
(§2) For a competitive test of the cyclic peptide, for each of increased concentrations of the cyclic peptide, 0.44 nM fluorescein-HGF and MET-Fc immobilized beads were mixed, the resulting mixture was incubated at 25° C. for 1 hour, and fluorescence intensity of the beads was measured using a flow cytometer.

[2] = biological target: T5, biotinylated full-length human HGF (human, UniProt P14210 32-728, biotinylated with a succinimidyl biotin labeling kit (sites not given)); test: SPR, Biacore T200, biotinylated HGF on CAP chip, peptide injected, single cycle kinetics
T5 construct: also called biotinylated HGF; biotinylated hHGF
Description: Binding of the cyclic peptides to immobilized HGF was measured using surface plasmon resonance (SPR) with Biacore T200 (product of GE Healthcare). Specifically, 2000 resonance units (RU) of biotinylated HGF was immobilized onto a CAP sensor chip by using a biotin capture kit (product of GE Healthcare).
Binding of the cyclic peptides was tested by injecting varying concentrations of the cyclic peptides into an HBS EP+buffer (10 mM HEPES (pH 7.4), 150 mM NaCl, 3 mM EDTA, and 0.05% (v/v) Surfactant P20) containing 0.1% DMSO at a flow rate of 30 μl/min. Binding of the cyclic peptides to HGF was analyzed by single cycle kinetics analysis.

[3] = biological target: human hepatocyte growth factor (HGF), recombinant full-length, active two-chain form (human, UniProt P14210 32-728); test: cell-based or functional assay
fluorescein-HGF [4] = biological target: T4, fluorescein-HGF; test: competition, flow cytometry: peptide varied against the binding of 0.44 nM fluorescein-HGF to MET-Fc beads [lower panel]
Description: as §1, §2

fluorescein-HGF [5] = biological target: T4, fluorescein-HGF; test: competition, flow cytometry: peptide varied against the binding of 0.44 nM fluorescein-HGF to MET-Fc beads [upper panel]
Description: as §1, §2

T4 sequence (P14210 other isoform, or with tags, fused parts or gaps limits assumed): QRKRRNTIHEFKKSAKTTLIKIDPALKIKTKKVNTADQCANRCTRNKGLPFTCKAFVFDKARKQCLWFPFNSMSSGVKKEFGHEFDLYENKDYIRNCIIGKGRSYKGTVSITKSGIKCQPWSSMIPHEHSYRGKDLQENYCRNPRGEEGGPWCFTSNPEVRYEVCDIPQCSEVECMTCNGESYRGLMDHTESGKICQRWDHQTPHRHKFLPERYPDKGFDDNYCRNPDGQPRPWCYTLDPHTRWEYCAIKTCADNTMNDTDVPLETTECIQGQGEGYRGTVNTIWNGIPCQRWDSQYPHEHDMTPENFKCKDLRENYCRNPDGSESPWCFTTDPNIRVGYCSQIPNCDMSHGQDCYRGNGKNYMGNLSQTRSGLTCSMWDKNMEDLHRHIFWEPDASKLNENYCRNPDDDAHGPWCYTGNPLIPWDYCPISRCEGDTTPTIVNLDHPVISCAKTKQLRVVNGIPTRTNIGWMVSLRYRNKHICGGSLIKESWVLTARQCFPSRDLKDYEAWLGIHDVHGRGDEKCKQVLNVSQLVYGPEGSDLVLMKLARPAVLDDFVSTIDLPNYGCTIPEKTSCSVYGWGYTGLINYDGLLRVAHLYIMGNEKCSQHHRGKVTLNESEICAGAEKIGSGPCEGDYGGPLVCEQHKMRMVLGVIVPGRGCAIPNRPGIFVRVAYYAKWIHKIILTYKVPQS
T1 sequence (P14210 32-489 isoform P14210-3): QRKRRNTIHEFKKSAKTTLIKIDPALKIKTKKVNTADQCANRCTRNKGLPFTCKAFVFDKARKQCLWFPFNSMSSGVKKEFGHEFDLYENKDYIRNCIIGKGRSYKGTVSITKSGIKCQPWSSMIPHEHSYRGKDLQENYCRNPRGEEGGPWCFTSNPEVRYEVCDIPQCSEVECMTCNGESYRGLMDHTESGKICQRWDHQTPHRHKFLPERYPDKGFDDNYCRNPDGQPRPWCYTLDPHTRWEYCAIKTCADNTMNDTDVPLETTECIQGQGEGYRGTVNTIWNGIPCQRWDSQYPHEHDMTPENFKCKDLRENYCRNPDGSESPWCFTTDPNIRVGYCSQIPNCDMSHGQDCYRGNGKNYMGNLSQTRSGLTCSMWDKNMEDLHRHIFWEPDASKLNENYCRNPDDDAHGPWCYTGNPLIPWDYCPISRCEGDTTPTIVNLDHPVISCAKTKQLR
T1 sequence (P14210 495-728): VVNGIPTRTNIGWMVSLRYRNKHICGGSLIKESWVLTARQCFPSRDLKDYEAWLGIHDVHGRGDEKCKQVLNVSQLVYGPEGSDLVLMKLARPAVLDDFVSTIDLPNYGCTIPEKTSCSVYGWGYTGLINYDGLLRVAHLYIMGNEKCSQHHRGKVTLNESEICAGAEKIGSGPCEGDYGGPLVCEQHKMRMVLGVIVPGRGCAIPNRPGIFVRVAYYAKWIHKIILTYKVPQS
T2 sequence (P08581 25-1390): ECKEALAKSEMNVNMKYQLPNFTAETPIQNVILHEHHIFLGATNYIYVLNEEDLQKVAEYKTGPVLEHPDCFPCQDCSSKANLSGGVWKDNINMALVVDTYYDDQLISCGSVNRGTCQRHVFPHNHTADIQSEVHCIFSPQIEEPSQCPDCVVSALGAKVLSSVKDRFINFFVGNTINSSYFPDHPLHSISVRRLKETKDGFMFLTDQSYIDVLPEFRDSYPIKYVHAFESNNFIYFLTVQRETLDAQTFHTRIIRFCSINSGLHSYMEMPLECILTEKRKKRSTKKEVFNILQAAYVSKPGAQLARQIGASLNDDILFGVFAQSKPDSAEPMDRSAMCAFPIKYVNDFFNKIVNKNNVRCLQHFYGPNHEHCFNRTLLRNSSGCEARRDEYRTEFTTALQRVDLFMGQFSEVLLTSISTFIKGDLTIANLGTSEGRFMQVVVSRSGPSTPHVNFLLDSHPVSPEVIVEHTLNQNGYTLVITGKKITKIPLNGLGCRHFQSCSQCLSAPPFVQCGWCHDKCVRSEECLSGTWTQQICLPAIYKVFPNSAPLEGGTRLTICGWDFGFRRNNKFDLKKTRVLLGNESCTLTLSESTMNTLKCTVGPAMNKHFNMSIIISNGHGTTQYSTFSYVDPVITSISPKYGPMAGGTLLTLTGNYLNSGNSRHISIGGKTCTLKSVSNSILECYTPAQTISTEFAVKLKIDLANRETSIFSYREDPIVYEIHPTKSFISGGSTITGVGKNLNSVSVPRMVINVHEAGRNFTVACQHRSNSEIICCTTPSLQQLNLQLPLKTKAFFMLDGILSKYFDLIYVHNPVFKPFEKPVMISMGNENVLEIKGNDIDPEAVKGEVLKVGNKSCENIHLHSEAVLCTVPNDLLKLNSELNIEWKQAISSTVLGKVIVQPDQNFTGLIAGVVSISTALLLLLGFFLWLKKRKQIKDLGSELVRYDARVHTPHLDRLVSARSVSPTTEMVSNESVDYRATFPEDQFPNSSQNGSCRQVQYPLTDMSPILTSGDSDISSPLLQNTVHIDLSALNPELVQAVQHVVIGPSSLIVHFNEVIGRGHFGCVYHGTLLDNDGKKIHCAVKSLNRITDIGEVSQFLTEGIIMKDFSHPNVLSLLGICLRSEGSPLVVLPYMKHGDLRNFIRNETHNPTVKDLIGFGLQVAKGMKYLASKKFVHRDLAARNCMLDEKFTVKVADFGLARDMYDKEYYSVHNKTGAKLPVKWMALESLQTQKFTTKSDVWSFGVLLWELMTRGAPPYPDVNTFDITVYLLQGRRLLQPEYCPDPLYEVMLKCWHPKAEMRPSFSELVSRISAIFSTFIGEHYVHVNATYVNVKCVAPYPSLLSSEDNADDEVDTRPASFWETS
T3 sequence (P14210 other isoform, or with tags, fused parts or gaps limits assumed, chain 1 of 2): as the sequence (P14210 32-489 isoform P14210-3) above, with K455I, Q456E, L457G counted along it
T3 sequence (P14210 495-728 limits assumed, chain 2 of 2): as the sequence (P14210 495-728) above
T5 sequence (P14210 other isoform, or with tags, fused parts or gaps limits assumed): as the sequence (P14210 other isoform, or with tags, fused parts or gaps limits assumed) above
Sequence of human hepatocyte growth factor (HGF), recombinant full-length, active two-chain form (P14210 other isoform, or with tags, fused parts or gaps limits assumed): as above

COc1cc2ncnc(Nc3ccc(F)c(Cl)c3)c2cc1OCCCN1CCOCC1 [gefitinib, reference compound]
growth of lung cancer cells (PC-9 cells): strongly inhibits growth of lung cancer cells

KHKISKWKK ({CH2CO}-[dW]KHKISKWKKC; thioether N-11 (inferred)) [HiP-6, thioether cyclic peptide]
MET inhibitory activity (HGF): had MET inhibitory activity

TRKISKWYK ({CH2CO}-[dW]TRKISKWYKC; thioether N-11 (inferred)) [HiP-1, thioether cyclic peptide]
MET inhibitory activity (HGF): had MET inhibitory activity

biotinylated HGF: hHGF biotinylated using a succinimidyl biotin labeling kit
MET activation activity compared with non-labeled HGF (MET): activity equivalent to that of non-labeled HGF

fluorescein HGF: hHGF labeled with fluorescein using a succinimidyl fluorescein labeling kit
MET activation activity compared with non-labeled HGF (MET): activity equivalent to that of non-labeled HGF

B1: HiP-8-PEG11-biotin (peptide)
peptide: {CH2CO}-[dW]PLSKWWYSKRC-{βAla-PEG11′-K(D-biotin)}
modifications: thioether N-12 (inferred)
notes: also called immobilized HiP-8-PEG11; HiP-8 (in the staining text)
Kd (tcHGF(Xa)): 2.5 nM

B2: cyclic peptide HiP-8 (peptide)
peptide: {CH2CO}-[dW]PLSKWWYSKRC
modifications: thioether N-12 (inferred)
notes: a C-terminal tail (X')r or amide after Cys is not known
IC50 (fluorescein-HGF [1]): 0.9 nM
Kd [2]: 0.4 nM
MET activation inhibition concentration (IC50), EHMES-1 cells stimulated with hHGF [3]: 8 nM
IC50 (read off the curve) (fluorescein-HGF [4]): ~1 nM

{CH2CO}-[dW]PLSKWWYSKRC[βAla][PEG11″] (thioether N-12 (inferred), also called HiP-8 modified peptide) [HiP-8-PEG11]
IC50 (read off the curve) (fluorescein-HGF [4]): ~1 nM

B3: HiP-8-PEG5 (peptide)
peptide: {CH2CO}-[dW]PLSKWWYSKRC[PEG5′]
modifications: thioether N-12; also: further groups not given here
notes: HiP-8 with a PEG5 tail; also called HiP-8 modified peptide
IC50 (read off the curve) (fluorescein-HGF [5]): ~1 nM
